Measured values published in patent publication US20090118167A1, “Selective Vpac2 Receptor Peptide Agonists” (Eli Lilly and Company Patent Division, priority 2004, published 2009).
Marks after values point to notes of the source that are not given here. Square brackets hold non-standard residues; d marks the D form. Ends that are not written are not given here. Nle = CCCC[C@H](N)C(=O)O; Orn = NCCC[C@H](N)C(=O)O; Aib = CC(C)(N)C(=O)O

Columns and labels:
human PAC1 = target: T1, human PAC1 (Homo sapiens, UniProt P41586); experiment: Filter binding assay, 125I-labeled PACAP-27 tracer; conditions: membranes from cells transiently transfected with human PAC1; read-out: Human receptor binding IC50 PAC1
T1 construct: expressed in transfected cells; membranes)
T1 sequence (P41586 21-468): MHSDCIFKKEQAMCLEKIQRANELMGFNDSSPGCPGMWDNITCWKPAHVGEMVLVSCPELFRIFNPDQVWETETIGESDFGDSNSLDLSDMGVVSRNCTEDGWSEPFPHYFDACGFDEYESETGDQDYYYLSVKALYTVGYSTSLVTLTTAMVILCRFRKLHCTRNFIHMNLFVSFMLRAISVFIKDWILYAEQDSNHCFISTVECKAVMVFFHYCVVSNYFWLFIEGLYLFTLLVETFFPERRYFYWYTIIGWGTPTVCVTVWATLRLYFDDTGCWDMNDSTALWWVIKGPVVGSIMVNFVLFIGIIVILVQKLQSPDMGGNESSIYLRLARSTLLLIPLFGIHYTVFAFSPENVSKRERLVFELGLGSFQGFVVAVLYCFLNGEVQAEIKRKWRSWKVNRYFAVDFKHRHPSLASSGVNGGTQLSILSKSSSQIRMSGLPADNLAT
Experimental: (§1) In order to prepare the filter plates, the presoak solution is aspirated by vacuum filtration. The plates are flushed twice with 200 μL flush buffer. 200 μL blocking buffer is added to the filter plate. The filter plate is then incubated with 200 μL presoak solution for 1 hour at room temperature.
(§2) The assay plate is filled with 25 μL assay buffer, 25 μL membranes (2.5 μg) suspended in assay buffer, 25 μL compound (agonist) in assay buffer, and 25 μL tracer (about 40000 cpm) in assay buffer. The filled plate is incubated for 1 hour with shaking.
(§3) The transfer from assay plate to filter plate is conducted. The blocking buffer is aspirated by vacuum filtration and washed two times with flush buffer. 90 μL is transferred from the assay plate to the filter plate. The 90 μL transferred from assay plate is aspirated and washed three times with 200 μL flush buffer. The plastic support is removed. It is dried for 1 hour at 60° C. 30 μL Microscint is added. The count is performed.
(§4) Values reported are single results or the mean of two or more independent runs.

human VPAC1 = target: T2, human VPAC1 (Homo sapiens, UniProt P32241); experiment: Filter binding assay, 125I-labeled VIP tracer; conditions: membranes from cells transiently transfected with human VPAC1; read-out: Human receptor binding IC50 VPAC1
T2 construct: expressed in transfected cells
T2 sequence (P32241 31-457): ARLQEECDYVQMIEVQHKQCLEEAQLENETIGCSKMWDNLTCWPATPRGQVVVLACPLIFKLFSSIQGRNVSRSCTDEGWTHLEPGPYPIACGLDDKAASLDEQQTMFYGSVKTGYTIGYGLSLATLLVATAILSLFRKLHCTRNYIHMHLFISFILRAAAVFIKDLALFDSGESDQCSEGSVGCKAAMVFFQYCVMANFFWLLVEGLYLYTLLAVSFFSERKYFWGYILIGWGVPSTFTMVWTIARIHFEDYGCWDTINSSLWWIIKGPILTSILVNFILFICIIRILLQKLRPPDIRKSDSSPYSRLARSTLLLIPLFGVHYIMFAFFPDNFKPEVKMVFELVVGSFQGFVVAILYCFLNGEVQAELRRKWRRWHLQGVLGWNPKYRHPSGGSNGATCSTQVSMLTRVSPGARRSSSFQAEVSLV
Experimental: as §1, §2, §3, §4

[1] = rat, in vivo, sc, 0.1 mg/kg
Experimental: Healthy Fisher 344 rats (3 animals per group) are injected with 100 μg compound/kg (compound amount based on peptide content and dissolved in PBS buffer). […] PK parameters are then calculated using a model-independent method (WinNonlin Pro, Pharsight Corp., Mountain View, Calif., USA).

Normal Wistar rats = experiment: Intravenous glucose tolerance test (IVGTT); type: in vivo, rat
Experimental: Intravenous glucose tolerance test (IVGTT): Normal Wistar rats are fasted overnight and are anesthetized prior to the experiment. A blood sampling catheter is inserted into the rats. The compound is given in the jugular vein. Blood samples are taken from the carotid artery. A blood sample is drawn immediately prior to the injection of glucose along with the compound. After the initial blood sample, glucose mixed with compound is injected intravenously (i.v.). Compound may also be injected intravenously or subcutaneously prior to the glucose challenge. A glucose challenge of 0.5 g/kg body weight is given, injecting a total of 1.5 mL vehicle with glucose and agonist per kg body weight. The peptide concentrations are varied to produce the desired dose in μg/kg. Blood samples are drawn at 2, 4, 6 and 10 minutes after giving glucose. The control group of animals receives the same vehicle along with glucose, but with no compound added. In some instances, a 30 minute post-glucose blood sample is drawn. Aprotinin is added to the blood sample (250-500 kIU/ml blood). The serum is then analyzed for glucose and insulin using standard methodologies.
The assay uses a formulated and calibrated peptide stock in PBS. Normally, this stock is a prediluted 100 μM stock. However, a more concentrated stock with approximately 1 mg agonist per mL is used. The specific concentration is always known. Variability in the maximal response is mostly due to variability in the vehicle dose.

human VPAC2 receptor [2] = target: T3, human VPAC2 receptor (human, UniProt P41587 24-438); experiment: filter binding assay, human VPAC2 membranes, displacement of 125I-VIP
T3 construct: whole, on cells; cAMP Alpha screen assay: whole cells
T3 sequence (looked up): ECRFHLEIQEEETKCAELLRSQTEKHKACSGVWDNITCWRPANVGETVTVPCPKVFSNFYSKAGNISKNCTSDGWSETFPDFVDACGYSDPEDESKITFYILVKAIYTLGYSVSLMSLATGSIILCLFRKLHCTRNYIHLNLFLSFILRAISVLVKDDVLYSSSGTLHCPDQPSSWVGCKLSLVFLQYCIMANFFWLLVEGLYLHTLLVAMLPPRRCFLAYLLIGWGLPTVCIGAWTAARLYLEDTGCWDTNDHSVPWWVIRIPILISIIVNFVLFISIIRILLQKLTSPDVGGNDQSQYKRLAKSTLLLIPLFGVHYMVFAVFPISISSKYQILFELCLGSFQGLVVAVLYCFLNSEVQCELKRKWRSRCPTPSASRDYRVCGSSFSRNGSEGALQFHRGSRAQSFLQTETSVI
Experimental: as §2, §3

human VPAC2 receptor [3] = target: T3, human VPAC2 receptor; experiment: cell-based or functional assay

## P279: cyclic PEGylated VPAC2 receptor peptide agonist (HSDAVFTENYTKLR[Aib]Q[Nle]AAKKYLNDLKKGGPSSGAPPPC; not fully specified (residue 39); ends and bridges not checked; also: cyclic, bridge type and places not given here, PEGylated, site not placed) [Agonist P279]
Human PAC1
  IC50: > 25000 nM
Human VPAC1
  IC50: > 3000 nM

## P463: cyclic PEGylated VPAC2 receptor peptide agonist (HSDAVFTENYT[Orn]LR[Aib]Q[Nle]AA[Orn]KYLNDL[Orn][Orn]GGPSSGAPPPC; also: cyclic, bridge type and places not given here, PEGylated, site not given here) [Agonist P463]
Human PAC1
  IC50: > 25000 nM
Human VPAC1
  IC50: > 3000 nM

## P348: cyclic PEGylated VPAC2 receptor peptide agonist (HSDAVFTENYTKLR[Aib]Q[Nle]AAKKYLNDLK[Aib]KGGPSSGAPPPC; not fully specified (residue 40); ends and bridges not checked; also: cyclic, bridge type and places not given here, PEGylated, site not placed) [Agonist P348]
[1]
  AUC0-last: 1007 ng·h/mL
  Cl/F: 1.5 mL/min/kg
  Vd/F: 2.224 L/kg
Human PAC1
  IC50: > 25000 nM
Human VPAC1
  IC50: > 1500 nM

## P274: cyclic PEGylated VPAC2 receptor peptide agonist (HSDAVFTENYTKL[Aib]KQ[Nle]AAKKYLNDLKQKGGPSSGAPPPC; not fully specified (residue 40); ends and bridges not checked; also: cyclic, bridge type and places not given here, PEGylated, site not placed) [Agonist P274]
Human PAC1
  IC50: > 25000 nM
Human VPAC1
  IC50: > 3000 nM

## P277: cyclic PEGylated VPAC2 receptor peptide agonist (HSDAVFTENYTKLRKQ[Nle]AAKKYLNDLKQGGPSSGAPPPC; ends and bridges not checked; also: cyclic, bridge type and places not given here, PEGylated, site not placed) [Agonist P277]
Human PAC1
  IC50: > 25000 nM
Human VPAC1
  IC50: > 3000 nM

## P376: cyclic PEGylated VPAC2 receptor peptide agonist (HSDAVFTENYT[Orn]LR[Aib]Q[Nle]AA[Orn]KYLNDL[Orn][Orn]GGPSSGAPPPC; also: cyclic, bridge type and places not given here, PEGylated, site not placed) [Agonist P376]
Human PAC1
  IC50: > 25000 nM
Human VPAC1
  IC50: > 3000 nM

## P255: cyclic PEGylated VPAC2 receptor peptide agonist (HSDAVFTENYTKL[Aib]KQ[Nle]AAKKYLNDLKQGGPSSGAPPPC; not fully specified (residue 39); ends and bridges not checked; also: cyclic, bridge type and places not given here, PEGylated, site not placed) [Agonist P255]
[1]
  AUC0-last: 5797 ng·h/mL
  Cl/F: 0.283 mL/min/kg
  Vd/F: 0.389 L/kg
Human PAC1
  IC50: > 25000 nM
Human VPAC1
  IC50: > 3000 nM

## P201: cyclic PEGylated VPAC2 receptor peptide agonist; P200 reacted with methoxy-PEG2-MAL-40K (HSDAVFTENYTKLRKQ[Nle]AAKKYLNDLKKGGPSSGAPPPC(methoxy‑PEG2‑MAL‑40K); ends and bridges not checked; also: cyclic, bridge kind and places not given here) [Agonist P201]
[1]
  AUC0-last: 8101 ng·h/mL
  Cl/F: 0.2 mL/min/kg
  Vd/F: 0.214 L/kg
Normal Wistar rats; Dose 10 μg/kg iv, 0 h between glucose & compound
  % increase AUC (insulin, 0-10 min after glucose): +146%
Normal Wistar rats; Dose 10 μg/kg iv, 4 h between glucose & compound
  % increase AUC (insulin, 0-10 min after glucose): +104%
Normal Wistar rats; Dose 30 μg/kg iv, 4 h between glucose & compound
  % increase AUC (insulin, 0-10 min after glucose): +191%
Normal Wistar rats; Dose 100 μg/kg iv, 4 h between glucose & compound
  % increase AUC (insulin, 0-10 min after glucose): +183%
Normal Wistar rats; Dose 300 μg/kg, given subcutaneously, 24 h between glucose & compound
  % increase AUC (insulin, 0-10 min after glucose): +209%
Normal Wistar rats; Dose was 90 μg/kg (column 100 μg/kg), given subcutaneously, 24 h between glucose & compound
  % increase AUC (insulin, 0-10 min after glucose): +89** %
Human VPAC1
  IC50: > 3000 nM

## P239: cyclic PEGylated VPAC2 receptor peptide agonist (HSDAVFTENYTKLRKQ[Nle]AAKKYLNDLKQGGPSSGAPPPC; not fully specified (residue 39); ends and bridges not checked; also: cyclic, bridge type and places not given here, PEGylated, site not placed) [Agonist P239]
Human PAC1
  IC50: > 25000 nM
Human VPAC1
  IC50: > 3000 nM

B1: P277 (cyclic PEGylated VPAC2 receptor peptide agonist) (peptide)
peptide: HSDAVFTENYTKLRKQ[Nle]AAKKYLNDLKQGGPSSGAPPPC
modifications: also: further groups not given here
Human VPAC2 receptor [2]
  IC50: 90.9 nM
Human VPAC2 receptor [3]
  EC50 for cAMP generation, Alpha screen: 470 nM

B2: P279 (cyclic PEGylated VPAC2 receptor peptide agonist) (peptide)
peptide: HSDAVFTENYTKLR[Aib]Q[Nle]AAKKYLNDLKKGGPSSGAPPPC
modifications: also: further groups not given here
Human VPAC2 receptor [2]
  IC50: 7.2 nM
Human VPAC2 receptor [3]
  EC50 for cAMP generation, Alpha screen: 5.93 nM

B3: P274 (cyclic PEGylated VPAC2 receptor peptide agonist) (peptide)
peptide: HSDAVFTENYTKL[Aib]KQ[Nle]AAKKYLNDLKQKGGPSSGAPPPC
modifications: also: further groups not given here
Human VPAC2 receptor [2]
  IC50: 126 nM
Human VPAC2 receptor [3]
  EC50 for cAMP generation, Alpha screen: 76.1 nM

B4: P268 (cyclic PEGylated VPAC2 receptor peptide agonist) (peptide)
peptide: HSDAVFTENYTKLRKQ[Nle]AAKKYLNDLKQKGGPSSGAPPPC
modifications: ends and bridges not checked; also: cyclic bridge (lactam or disulfide), places not given here, PEGylated, site not given here
Human VPAC2 receptor [3]
  EC50 for cAMP generation, Alpha screen: 8.82 nM
